Several values for one entry are separate records, joined by “and”; a condition that tells them apart may be missing. Identical values can stand only once. Bridge positions count the residues as written; N and C are the ends. Square brackets hold non-standard residues; d marks the D form. Trp(1-Me) = Cn1cc(C[C@H](N)C(=O)O)c2ccccc21
B1: Peptide VI, Ac-RS-ICVme…-NH2 (peptide)
peptide: RSICVXQDWGAHRCT
modifications: N-terminal acetyl; C-terminal amide; disulfide bridge Cys2-Cys12; meW (Trp methylated at the indole amide position) at position 4 (filing's numbering from -1; 6th residue of the chain)
B2: Peptide III, Ac-RCVme…-NH2 (peptide)
peptide: Ac-RCV[Trp(1-Me)]QDWGAHRCT-NH2
modifications: disulfide 2-12
SMILES: CC(=O)N[C@@H](CCCNC(=N)N)C(=O)N[C@H]1CSSC[C@@H](C(=O)N[C@H](C(N)=O)[C@@H](C)O)NC(=O)[C@H](CCCNC(=N)N)NC(=O)[C@H](Cc2c[nH]cn2)NC(=O)[C@H](C)NC(=O)CNC(=O)[C@H](Cc2c[nH]c3ccccc23)NC(=O)[C@H](CC(=O)O)NC(=O)[C@H](CCC(N)=O)NC(=O)[C@H](Cc2cn(C)c3ccccc23)NC(=O)[C@H](C(C)C)NC1=O
B3: Peptide I, Ac-RCVWQDWGAHRCT-NH2 (peptide)
peptide: Ac-RCVWQDWGAHRCT-NH2
modifications: disulfide 2-12
SMILES: CC(=O)N[C@@H](CCCNC(=N)N)C(=O)N[C@H]1CSSC[C@@H](C(=O)N[C@H](C(N)=O)[C@@H](C)O)NC(=O)[C@H](CCCNC(=N)N)NC(=O)[C@H](Cc2c[nH]cn2)NC(=O)[C@H](C)NC(=O)CNC(=O)[C@H](Cc2c[nH]c3ccccc23)NC(=O)[C@H](CC(=O)O)NC(=O)[C@H](CCC(N)=O)NC(=O)[C@H](Cc2c[nH]c3ccccc23)NC(=O)[C@H](C(C)C)NC1=O
B4: Peptide VIII, Ac-SS-RCVme…-NH2 (peptide)
peptide: Ac-SSRCV[Trp(1-Me)]QDWGAHRCT-NH2
modifications: disulfide 4-14
SMILES: CC(=O)N[C@@H](CO)C(=O)N[C@@H](CO)C(=O)N[C@@H](CCCNC(=N)N)C(=O)N[C@H]1CSSC[C@@H](C(=O)N[C@H](C(N)=O)[C@@H](C)O)NC(=O)[C@H](CCCNC(=N)N)NC(=O)[C@H](Cc2c[nH]cn2)NC(=O)[C@H](C)NC(=O)CNC(=O)[C@H](Cc2c[nH]c3ccccc23)NC(=O)[C@H](CC(=O)O)NC(=O)[C@H](CCC(N)=O)NC(=O)[C@H](Cc2cn(C)c3ccccc23)NC(=O)[C@H](C(C)C)NC1=O
B5: Peptide V, Ac-WW-RCVWQDWGAHRCT-NH2 (peptide)
peptide: Ac-WWRCVWQDWGAHRCT-NH2
modifications: disulfide 4-14
SMILES: CC(=O)N[C@@H](Cc1c[nH]c2ccccc12)C(=O)N[C@@H](Cc1c[nH]c2ccccc12)C(=O)N[C@@H](CCCNC(=N)N)C(=O)N[C@H]1CSSC[C@@H](C(=O)N[C@H](C(N)=O)[C@@H](C)O)NC(=O)[C@H](CCCNC(=N)N)NC(=O)[C@H](Cc2c[nH]cn2)NC(=O)[C@H](C)NC(=O)CNC(=O)[C@H](Cc2c[nH]c3ccccc23)NC(=O)[C@H](CC(=O)O)NC(=O)[C@H](CCC(N)=O)NC(=O)[C@H](Cc2c[nH]c3ccccc23)NC(=O)[C@H](C(C)C)NC1=O
B6: Peptide IV, Ac-SS-ICVWQDWGAHRCT-NH2 (peptide)
peptide: Ac-SSICVWQDWGAHRCT-NH2
modifications: disulfide 4-14
SMILES: CC[C@H](C)[C@H](NC(=O)[C@H](CO)NC(=O)[C@H](CO)NC(C)=O)C(=O)N[C@H]1CSSC[C@@H](C(=O)N[C@H](C(N)=O)[C@@H](C)O)NC(=O)[C@H](CCCNC(=N)N)NC(=O)[C@H](Cc2c[nH]cn2)NC(=O)[C@H](C)NC(=O)CNC(=O)[C@H](Cc2c[nH]c3ccccc23)NC(=O)[C@H](CC(=O)O)NC(=O)[C@H](CCC(N)=O)NC(=O)[C@H](Cc2c[nH]c3ccccc23)NC(=O)[C@H](C(C)C)NC1=O
B7: Peptide VII, Ac-RS-RCVme…-NH2 (peptide)
peptide: Ac-RSRCV[Trp(1-Me)]QDWGAHRCT-NH2
modifications: disulfide 4-14
SMILES: CC(=O)N[C@@H](CCCNC(=N)N)C(=O)N[C@@H](CO)C(=O)N[C@@H](CCCNC(=N)N)C(=O)N[C@H]1CSSC[C@@H](C(=O)N[C@H](C(N)=O)[C@@H](C)O)NC(=O)[C@H](CCCNC(=N)N)NC(=O)[C@H](Cc2c[nH]cn2)NC(=O)[C@H](C)NC(=O)CNC(=O)[C@H](Cc2c[nH]c3ccccc23)NC(=O)[C@H](CC(=O)O)NC(=O)[C@H](CCC(N)=O)NC(=O)[C@H](Cc2cn(C)c3ccccc23)NC(=O)[C@H](C(C)C)NC1=O

The binders below were run against T1, human complement protein C3 (human, UniProt P01024 23-1663) (assay: cell-based or functional assay).
T1 sequence (P01024 23-1663 limits assumed): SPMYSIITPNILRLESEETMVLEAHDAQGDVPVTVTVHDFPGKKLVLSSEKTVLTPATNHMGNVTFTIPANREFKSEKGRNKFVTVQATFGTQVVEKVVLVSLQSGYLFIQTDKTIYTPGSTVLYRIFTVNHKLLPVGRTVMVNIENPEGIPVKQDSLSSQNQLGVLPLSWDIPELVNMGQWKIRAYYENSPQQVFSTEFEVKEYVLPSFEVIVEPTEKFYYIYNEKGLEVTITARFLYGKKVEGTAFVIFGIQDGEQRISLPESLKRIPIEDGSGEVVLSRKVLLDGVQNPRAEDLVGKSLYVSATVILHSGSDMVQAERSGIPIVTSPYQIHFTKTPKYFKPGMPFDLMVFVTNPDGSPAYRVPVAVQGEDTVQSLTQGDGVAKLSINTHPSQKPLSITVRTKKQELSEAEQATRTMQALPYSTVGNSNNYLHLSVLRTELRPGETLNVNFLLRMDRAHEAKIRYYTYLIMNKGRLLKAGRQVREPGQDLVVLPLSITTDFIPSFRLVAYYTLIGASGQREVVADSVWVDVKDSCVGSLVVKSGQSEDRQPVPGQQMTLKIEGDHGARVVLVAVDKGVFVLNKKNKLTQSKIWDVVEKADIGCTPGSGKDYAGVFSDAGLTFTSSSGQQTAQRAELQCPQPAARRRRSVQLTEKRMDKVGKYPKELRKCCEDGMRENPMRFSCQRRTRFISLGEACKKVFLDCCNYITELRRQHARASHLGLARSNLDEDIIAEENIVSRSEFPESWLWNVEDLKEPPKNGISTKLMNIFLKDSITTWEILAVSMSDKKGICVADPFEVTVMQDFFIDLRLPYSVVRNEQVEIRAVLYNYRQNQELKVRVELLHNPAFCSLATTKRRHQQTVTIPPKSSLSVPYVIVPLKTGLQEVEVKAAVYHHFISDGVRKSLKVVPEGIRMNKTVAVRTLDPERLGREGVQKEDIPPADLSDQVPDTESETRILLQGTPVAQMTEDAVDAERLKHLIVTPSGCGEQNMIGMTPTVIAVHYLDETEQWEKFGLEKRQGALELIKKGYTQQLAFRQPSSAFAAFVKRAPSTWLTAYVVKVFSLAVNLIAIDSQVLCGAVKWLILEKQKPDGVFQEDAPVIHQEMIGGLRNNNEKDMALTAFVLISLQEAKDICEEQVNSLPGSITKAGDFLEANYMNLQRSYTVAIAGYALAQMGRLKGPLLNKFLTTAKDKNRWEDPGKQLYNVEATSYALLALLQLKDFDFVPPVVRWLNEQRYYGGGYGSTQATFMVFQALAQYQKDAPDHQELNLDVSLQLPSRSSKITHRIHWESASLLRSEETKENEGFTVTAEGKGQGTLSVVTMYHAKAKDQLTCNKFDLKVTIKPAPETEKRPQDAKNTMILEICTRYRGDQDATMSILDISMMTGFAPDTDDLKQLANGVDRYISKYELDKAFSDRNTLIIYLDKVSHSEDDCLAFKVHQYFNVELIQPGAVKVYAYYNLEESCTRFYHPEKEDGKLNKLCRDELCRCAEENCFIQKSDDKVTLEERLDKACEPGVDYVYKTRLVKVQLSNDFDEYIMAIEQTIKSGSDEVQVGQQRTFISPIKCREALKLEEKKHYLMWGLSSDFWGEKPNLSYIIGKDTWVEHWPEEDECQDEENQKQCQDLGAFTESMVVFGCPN

Binder | RPE cell assay medium C5b-9 ELISA, % of positive control (peptide at 1 µM) | RPE cell-based assay, confocal imaging of deposit-associated C5b-9, % of positive control (peptide at 1 µM)
B1 | 44.6 % of positive control | 14.8 % of positive control
B2 | 50 % of positive control | 20 % of positive control
B3 | 61.4 % of positive control | 55.3 % of positive control

Biological target: T1, human complement protein C3
Test: cell-based or functional assay
Remark: another data set of the same source

Binder | IC50 (assay not named in Table 7; preliminary C3b ELISA by paragraph 235)
B1 | 620000 nM
B4 | 420000 nM
Ac-[Trp(1-Me)]CVWQDWGAHRCT-NH2 (disulfide 2-12) [Peptide II, Ac-me…-NH2] | 240000 nM
B5 | 460000 nM
B2 | 300000 nM
B3 | 250000 nM
B6 | 330000 nM
B7 | 470000 nM

Biological target: T1, human complement protein C3
Test: cell-based or functional assay
Remark: another data set of the same source

Binder | C3b ELISA IC50 | C5b-9 ELISA IC50 | Lysis IC50
B1 | 1700 nM and 600 nM | 1100 nM and 600 nM | 
B2 | 1400 nM and 500 nM | 1100 nM and 600 nM | 
B3 | 2600 nM and 1100 nM | 2000 nM and 1000 nM | 3300 nM and 1200 nM

Biological target: T1, human complement protein C3
Test: cell-based or functional assay
Remark: another data set of the same source

Binder | C3b ELISA IC50 | C5b-9 ELISA IC50 | Hemolytic assay IC50
B1 | 1740 nM | 1130 nM | 2230 nM
B2 | 1420 nM | 1070 nM | 2250 nM
B3 | 2580 nM | 2020 nM | 3330 nM
